These results are taken from US11472877 (Alector, dated 2022).

The labels stand for the following.
T1: mouse TREM2 on BWZ cells (mouse, UniProt Q99NH8 19-227)
T1 construct: whole, on cells; also called BWZ Mouse TREM2
T1 sequence (looked up): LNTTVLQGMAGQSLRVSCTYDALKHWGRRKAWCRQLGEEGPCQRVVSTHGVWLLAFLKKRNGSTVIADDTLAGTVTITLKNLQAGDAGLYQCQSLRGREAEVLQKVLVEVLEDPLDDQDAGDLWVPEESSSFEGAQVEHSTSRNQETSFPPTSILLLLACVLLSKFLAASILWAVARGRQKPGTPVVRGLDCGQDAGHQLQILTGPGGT

T2: human TREM2 on BWZ cells (human, UniProt Q9NZC2 19-230)
T2 construct: whole, on cells; not tied to the cell line; also called BWZ Human TREM2
T2 sequence (looked up): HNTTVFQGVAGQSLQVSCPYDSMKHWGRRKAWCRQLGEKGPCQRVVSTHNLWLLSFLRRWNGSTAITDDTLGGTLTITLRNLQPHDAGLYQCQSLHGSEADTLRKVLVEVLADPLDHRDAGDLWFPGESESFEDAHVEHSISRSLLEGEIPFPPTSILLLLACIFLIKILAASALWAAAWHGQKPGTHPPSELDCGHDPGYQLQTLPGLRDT

T3: mouse TREM1 on CHO cells (mouse, UniProt Q9JKE2 21-230)
T3 construct: also called CHO-mT1
T3 sequence: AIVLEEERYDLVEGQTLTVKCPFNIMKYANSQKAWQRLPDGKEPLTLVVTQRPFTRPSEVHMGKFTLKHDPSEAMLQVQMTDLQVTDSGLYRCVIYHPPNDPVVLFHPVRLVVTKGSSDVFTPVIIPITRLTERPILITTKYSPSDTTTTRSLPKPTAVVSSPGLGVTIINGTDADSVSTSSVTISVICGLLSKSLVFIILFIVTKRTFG

B1: T1-26 (antibody, IgG1, V domains shown)
VH: QVQLVQSGAEVKKPGASVKVSCKASGYTFTSYYIHWVRQAPGQGLEWMGIINPSGGSTSYAQKFQGRVTMTRDTSTSTVYMELSSLRSEDTAVYYCARDSAQETYYYGMDVWGQGTTVTVSS
VL: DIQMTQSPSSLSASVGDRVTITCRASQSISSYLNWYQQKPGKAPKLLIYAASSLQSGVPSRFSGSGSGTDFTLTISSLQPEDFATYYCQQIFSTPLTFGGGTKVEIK
notes: huIgG1; also called TI-26
B2: T1-16 (antibody, IgG1, V domains shown)
VH: EVQLVESGGGLVQPGRSLRLSCAASGFTFDDYAMHWVRQAPGKGLEWVSGISWNSGSIGYADSVKGRFTISRDNAKNSLYLQMNSLRAEDTALYYCAKGPRMSGWWADWGQGTLVTVSS
VL: DIQMTQSPSSVSASVGDRVTITCRASQGISSWLAWYQQKPGKAPKLLIYAASSLQSGVPSRFSGSGSGTDFTLTISSLQPEDFATYYCQQADTLPITFGGGTKVEIK
notes: huIgG1; also called TI-16; ADI-19083
B3: T1-27 (antibody, IgG1, V domains shown)
VH: QVQLQESGPGLVKPSQTLSLTCTVSGGSISSGGYYWSWIRQHPGKGLEWIGYIYYSGSTYYNPSLKSRVTISVDTSKNQFSLKLSSVTAADTAVYYCARDSSIAGRATLSFDYWGQGTLVTVSS
VL: B2 VL with V11L, G28S, W32Y, A34N, A91S, D92F, T93Y, L94D
notes: huIgG1; also called TI-27
B4: T1-25 (antibody, IgG1, V domains shown)
VH: B2 VH with P100G, R101S, M102R, S103Y, G104S, W105H, W106F, A107D, D108Y
VL: EIVLTQSPATLSLSPGERATLSCRASQSVSSYLAWYQQKPGQAPRLLIYDASNRATGIPARFSGSGSGTDFTLTISSLEPEDFAVYYCQQRSVLPLTFGGGTKVEIK
notes: huIgG1; also called TI-25; ADI-19092
B5: T1-24 (antibody, IgG1, V domains shown)
VH: B2 VH with S52T, M102L, S103L, G104S, W105A, W106L, A107D, D108V, L114M
VL: DIQMTQSPSTLSASVGDRVTITCRASQSISSWLAWYQQKPGKAPKLLIYKASSLESGVPSRFSGSGSGTEFTLTISSLQPDDFATYYCQQDSIYPITFGGGTKVEIK
notes: huIgG1; also called TI-24; ADI-19150
B6: T1-19 (antibody, IgG1, V domains shown)
VH: EVQLVESGGGLVQPGGSLRLSCAASGFTFSDHHMDWVRQAPGKGLEWVGRTRNKANSYTTEYAASVKGRFTISRDDSKNSLYLQMNSLKTEDTAVYYCARGPLGYKLWGQGTLVTVSS
VL: B2 VL with S53N, D92N, T93S, L94F, I96L
notes: huIgG1; also called TI-19; ADI-19086
B7: T1-23 (antibody, IgG1, V domains shown)
VH: B2 VH with S52T, M102L, S103L, G104S, W105A, W106L, A107D, D108V, L114M
VL: B5 VL with S30G, D91H, S92Q, I93S, Y94F, P95S, I96P
notes: huIgG1; also called TI-23; ADI-19090
B8: T1-20 (antibody, IgG1, V domains shown)
VH: EVQLVESGGGLVQPGGSLRLSCAASGFTFSSYWMSWVRQAPGKGLEWVANIKQDGSEKYYVDSVKGRFTISRDNAKNSLYLQMNSLRAEDTAVYYCARDAPQLGLDVWGQGTMVTVSS
VL: not shown
notes: huIgG1; also called TI-20; ADI-19087
B9: T1-28 (antibody, IgG1, V domains shown)
VH: EVQLVESGGGLVKPGGSLRLSCAASGFTFSSYSMNWVRQAPGKGLEWVSSISSSSNYIYYADSVKGRFTISRDNAKNSLYLQMNSLRAEDTAVYYCARGPSQYYYDSSAIEAFDIWGQGTMVTVSS
VL: EIVLTQSPATLSVSPGERATLSCRASQSVGSNLAWYQQKPGQAPRLLIYGASTRATGIPARFSGSGSGTEFTLTISSLQSEDFAVYYCQQYLYFPLTFGGGTKVEIK
notes: huIgG1; also called TI-28
B10: T1-13 (antibody, IgG1, V domains shown)
VH: EVQLVESGGGLVKPGGSLRLSCAASGFTFSSYSMNWVRQAPGKGLEWVSSISSSSNYIYYADSVKGRFTISRDNAKNSLYLQMNSLRAEDTAVYYCARGRYRRTGSLDVWGQGTMVTVSS
VL: EIVLTQSPGTLSLSPGERATLSCRASQSVSSSFLAWYQQKPGQAPRLLIYGASSRATGIPDRFSGSGSGTDFTLTISRLEPEDFAVYYCQQLDSHPPTFGGGTKVEIK
notes: huIgG1; also called TI-13; ADI-19080
B11: T1-21 (antibody, IgG1, V domains shown)
VH: EVQLVESGGGLVQPGGSLRLSCAASGFTFSSYSMNWVRQAPGKGLEWVSYISSSSSTIYYADSVKGRFTISRDNAKNSLYLQMNSLRAEDTAVYYCARGGPLGYGDYKGMDVWGQGTTVTVSS
VL: DIQLTQSPSSLSASVGDRVTITCRASQSISSFLNWYQQKPGKAPKLLIYAASSLQSGVPSRFSGSGSGTDFTLTISSLQPEDFATYYCQQSYSDLTFGGGTKVEIK
notes: huIgG1; also called TI-21; ADI-19088
B12: T1-33 (antibody, IgG1, V domains shown)
VH: QVQLVESGGGVVQPGRSLRLSCAASGFTFSNYGMHWVRQAPGKGLEWVAVIWYDGSNKYYADSVKGRFTISRDNSKNTLYLQMNSLRAEDTAVYYCAKGSTHRGSAYGMDVWGQGTTVTVSS
VL: B2 VL with A91I, D92N, T93D, L94H, I96F
notes: huIgG1; also called TI-33; ADI-19107
B13: T1-22 (antibody, IgG1, V domains shown)
VH: QVQLQESGPGLVKPSETLSLTCTVSGGSISSYYWSWIRQPPGKGLEWIGHIYYSGSTNYNPSLKSRVTISVDTSKNQFSLKLSSVTAADTAVYYCARDAGRYYGSSSSWYFDLWGRGTLVTVSS
VL: B10 VL with F33Y, L92Y, D93L, S94I, H95P, P97I
notes: huIgG1; also called TI-22; ADI-19089
B14: T1-34 (antibody, IgG1, V domains shown)
VH: EVQLVESGGGLVKPGGSLRLSCAASGFTFSSYSMNWVRQAPGKGLEWVSSISSSSNYIYYADSVKGRFTISRDNAKNSLYLQMNSLKAEDTAVYYCARRPDDRRGLFQHWGQGTLVTVSS
VL: B5 VL with S30N, Y49S, K50D, D91Y, S92G, I93P, I96Y
notes: huIgG1; also called TI-34; ADI-19108

Positions count from the first letter of the chain named.

The first assay has as its target T1, mouse TREM2 on BWZ cells. Nature of the assay: FACS, BWZ mouse TREM2. For orientation: A flow cytometer gives signals particle by particle.
Regarding B1, the “FOB Fold Over Background” value turned out to be 1.2 fold.

Regarding B2, the “FOB Fold Over Background” value stood at 1.2 fold.

For the molecule B3, the “FOB Fold Over Background” value was determined as 1.2 fold.

With B4, the “FOB Fold Over Background” value amounted to 1.3 fold.

As for B5, the “FOB Fold Over Background” value is 1.2 fold.

Regarding B6, the “FOB Fold Over Background” value came out at 0.8 fold.

On to B7, for which the “FOB Fold Over Background” value came to 1.2 fold.

In the case of B8, the “FOB Fold Over Background” value was 1 fold.

For the molecule B9, the “FOB Fold Over Background” value is 1.1 fold.

With B10, the “FOB Fold Over Background” value is 1.2 fold.

Take B11: the “FOB Fold Over Background” value is 0.9 fold.

The target of another assay is T2, human TREM2 on BWZ cells. Nature of the assay: FACS, BWZ human TREM2.
Turning to B1, the “FOB Fold Over Background” value turned out to be 0.8 fold.

As to B2, the “FOB Fold Over Background” value stood at 0.7 fold.

For the molecule B3, the “FOB Fold Over Background” value was 0.8 fold.

Regarding B4, the “FOB Fold Over Background” value amounted to 0.7 fold.

Take B5: the “FOB Fold Over Background” value is 1.4 fold.

With B6, the “FOB Fold Over Background” value turned out to be 0.5 fold.

For B7, the “FOB Fold Over Background” value is 1 fold.

Regarding B8, the “FOB Fold Over Background” value was 0.6 fold.

On to B9, for which the “FOB Fold Over Background” value was determined as 0.6 fold.

B10: the “FOB Fold Over Background” value worked out at 0.7 fold.

B11: the “FOB Fold Over Background” value came out at 0.5 fold.

A further assay deals with T3, mouse TREM1 on CHO cells. Nature of the assay: FACS, CHO mouse TREM1.
Consider B1, for which the “FOB Fold Over Background” value was found to be 417 fold.

For the molecule B2, the “FOB Fold Over Background” value is 1 fold.

B3: the “FOB Fold Over Background” value worked out at 523 fold.

With B4, the “FOB Fold Over Background” value was 0.9 fold.

Regarding B5, the “FOB Fold Over Background” value turned out to be 1.3 fold.

As to B6, the “FOB Fold Over Background” value is 0.9 fold.

On to B7, for which the “FOB Fold Over Background” value came out at 1 fold.

For B8, the “FOB Fold Over Background” value amounted to 0.7 fold.

In the case of B9, the “FOB Fold Over Background” value was found to be 408 fold.

For the molecule B10, the “FOB Fold Over Background” value is 0.5 fold.

Regarding B11, the “FOB Fold Over Background” value stood at 0.5 fold.

The target in a further assay is T1, mouse TREM2 on BWZ cells. Kind of assay: FACS, BWZ cells.
With B1, the binding result is on record as “no binding”.

Consider B2, for which the binding result is recorded as “no binding”.

Regarding B3, the binding result is reported as “no binding”.

Regarding B4, the binding result is on record as “no binding”.

For B5, the binding result is recorded as “no binding”.

Turning to B6, the binding result is recorded as “no binding”.

As for B12, the binding result is “no binding”.

For B7, the binding result is “no binding”.

As to B8, the binding result is “no binding”.

Take B9: the binding result is “no binding”.

Turning to B10, the binding result is reported as “no binding”.

For the molecule B13, the binding result is given as “no binding”.

For the molecule B11, the binding result is “no binding”.

Regarding B14, the binding result is on record as “no binding”.

The target of the next assay is T2, human TREM2 on BWZ cells. Nature of the assay: FACS, BWZ cells.
For the molecule B1, the binding result is reported as “no binding”.

Take B2: the binding result was “no binding”.

With B3, the binding result was “no binding”.

As to B4, the binding result is “no binding”.

For B5, the binding result is on record as “no binding”.

On to B6, for which the binding result is recorded as “no binding”.

B12: the binding result is reported as “no binding”.

Turning to B7, the binding result is given as “no binding”.

On to B8, for which the binding result was “no binding”.

B9: the binding result is reported as “no binding”.

With B10, the binding result is reported as “no binding”.

With B13, the binding result is given as “no binding”.

As for B11, the binding result is on record as “no binding”.

For the molecule B14, the binding result is on record as “no binding”.
